# T1: Human GRK2 protein (His Tag) (human, UniProt P25098 1-689)
# T1 sequence: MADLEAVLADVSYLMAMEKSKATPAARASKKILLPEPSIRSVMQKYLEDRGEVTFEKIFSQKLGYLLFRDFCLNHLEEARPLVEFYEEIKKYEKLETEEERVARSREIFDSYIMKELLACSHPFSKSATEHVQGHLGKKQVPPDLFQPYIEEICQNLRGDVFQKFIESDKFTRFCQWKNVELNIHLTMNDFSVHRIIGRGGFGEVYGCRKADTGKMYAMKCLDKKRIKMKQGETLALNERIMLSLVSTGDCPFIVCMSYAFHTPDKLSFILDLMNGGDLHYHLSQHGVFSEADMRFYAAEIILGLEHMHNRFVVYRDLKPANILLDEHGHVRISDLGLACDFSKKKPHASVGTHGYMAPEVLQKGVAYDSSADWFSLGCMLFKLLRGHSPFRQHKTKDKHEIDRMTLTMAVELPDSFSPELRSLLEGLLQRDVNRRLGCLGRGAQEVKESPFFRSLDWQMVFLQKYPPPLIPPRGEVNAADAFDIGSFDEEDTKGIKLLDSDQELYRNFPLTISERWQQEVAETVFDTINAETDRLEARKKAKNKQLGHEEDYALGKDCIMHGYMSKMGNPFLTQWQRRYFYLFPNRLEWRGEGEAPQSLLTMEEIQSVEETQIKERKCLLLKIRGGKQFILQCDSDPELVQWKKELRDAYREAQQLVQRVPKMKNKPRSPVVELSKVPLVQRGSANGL
# Molecular target: T1, Human GRK2 protein (His Tag)
# Assay: SPR
binder,measurement,value
Human TRAF2 protein (His Tag) (natural protein) MAAASVTPPGSLELLQPGFSKTLLGTKLEAKYLCSACRNVLRRPFQAQCGHRYCSFCLASILSSGPQNCAACVHEGIYEEGISILESSSAFPDNAARREVESLPAVCPSDGCTWKGTLKEYESCHEGRCPLMLTECPACKGLVRLGEKERHLEHECPERSLSCRHCRAPCCGADVKAHHEVCPKFPLTCDGCGKKKIPREKFQDHVKTCGKCRVPCRFHAIGCLETVEGEKQQEHEVQWLREHLAMLLSSVLEAKPLLGDQSHAGSELLQRCESLEKKTATFENIVCVLNREVERVAMTAEACSRQHRLDQDKIEALSSKVQQLERSIGLKDLAMADLEQKVLEMEASTYDGVFIWKISDFARKRQEAVAGRIPAIFSPAFYTSRYGYKMCLRIYLNGDGTGRGTHLSLFFVVMKGPNDALLRWPFNQKVTLMLLDQNNREHVIDAFRPDVTSSSFQRPVNDMNIASGCPLFCPVSKMEAKNSYVRDDAIFIKAIVDLTGL,Kd,31.2 nM
